# Data from patent publication US20170002055A1, “Novel peptides and combination of peptides for use in immunotherapy against ovarian cancer and other cancers” (immatics biotechnologies GmbH, priority 2015, published 2017).
# Target: HLA-A*02:01 (Homo sapiens, UniProt P04439, D140Y/D185E/D98H/E176V/E277Q/G131W/G231S/I119V/I121R/I166T/I218V/L300P/L318F/N151K/N90K/P208A/P217A/Q86G/Q94H/R138H/R169H/T345S)
# Test: MHC binding assay (UV-ligand exchange, β2m ELISA, peptide exchange yield)
# Settings: MHC class I binding score; binding to HLA-A*02:01 ranged by peptide exchange yield (UV-ligand exchange, β2m ELISA)
# In short: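 Peptide–HLA-A*02:01 complexes were formed by UV-mediated exchange of a UV-cleavable ligand for the test peptide. Exchange yield was measured by capturing complexes on streptavidin, detecting with HRP anti-β2m antibody (1 h, 37°C) and reading TMB absorbance at 450 nm.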
row,Peptide exchange,Substance
1,“++” (≧20% = ++),524 (ALIENLTHQI; listed as Homo sapiens) [compound 524]
2,“+++” (≧50 = +++),528 (SVAEGRALMSV; listed as Homo sapiens) [compound 528]
3,“+++” (≧50 = +++),531 (YTLPIASSIRL; listed as Homo sapiens) [compound 531]
4,“+++” (≧50 = +++),537 (TLAPGEVLRSV; listed as Homo sapiens) [compound 537]
5,“+++” (≧50 = +++),539 (ALFDAQAQV; listed as Homo sapiens) [compound 539]
6,“+++” (≧50 = +++),543 (GLLPTPITQQASL; listed as Homo sapiens) [compound 543]
7,“+++” (≧50 = +++),545 (LLADLLHNV; listed as Homo sapiens) [compound 545]
8,“+++” (≧50 = +++),550 (FLYDEIEAEVNL; listed as Homo sapiens) [compound 550]
9,“+++” (≧50 = +++),555 (YVLEGLKSV; listed as Homo sapiens) [compound 555]
10,“+++” (≧50 = +++),556 (FLTDLEDLTL; listed as Homo sapiens) [compound 556]
11,“+++” (≧50 = +++),557 (KLYDDMIRL; listed as Homo sapiens) [compound 557]
12,“+++” (≧50 = +++),561 (YLQLTQSEL; listed as Homo sapiens) [compound 561]
13,“+++” (≧50 = +++),563 (WLLPYNGVTV; listed as Homo sapiens) [compound 563]
14,“+++” (≧50 = +++),564 (TVTNAVVTV; listed as Homo sapiens) [compound 564]
15,“++” (≧20% = ++),565 (ALQETPTSV; listed as Homo sapiens) [compound 565]
16,“++” (≧20% = ++),566 (VIADGGIQNV; listed as Homo sapiens) [compound 566]

row,Peptide exchange,Substance
1,“+++” (≧50 = +++),567 (SLLPLDDIVRV; listed as Homo sapiens) [compound 567]
2,“++” (≧20% = ++),570 (ALANQIPTV; listed as Homo sapiens) [compound 570]
3,“+++” (≧50 = +++),571 (LLLTTIPQI; listed as Homo sapiens) [compound 571]
4,“+++” (≧50 = +++),572 (ALADLIEKELSV; listed as Homo sapiens) [compound 572]
5,“+++” (≧50 = +++),573 (ILVANAIVGV; listed as Homo sapiens) [compound 573]
6,“++++” (≧75% = ++++),576 (ILLNNSGQIKL; listed as Homo sapiens) [compound 576]
7,“+++” (≧50 = +++),578 (FLDPGGPMMKL; listed as Homo sapiens) [compound 578]
8,“++” (≧20% = ++),579 (NLMEMVAQL; listed as Homo sapiens) [compound 579]
9,“++” (≧20% = ++),580 (LLMENAERV; listed as Homo sapiens) [compound 580]
10,“+++” (≧50 = +++),582 (TLCDVILMV; listed as Homo sapiens) [compound 582]
11,“+++” (≧50 = +++),584 (ALAEVAAMENV; listed as Homo sapiens) [compound 584]
12,“+++” (≧50 = +++),587 (VMNDRLYAI; listed as Homo sapiens) [compound 587]
13,“+++” (≧50 = +++),591 (SMAELDIKL; listed as Homo sapiens) [compound 591]
14,“+++” (≧50 = +++),593 (GLPRFGIEMV; listed as Homo sapiens) [compound 593]
15,“+++” (≧50 = +++),594 (IMLKGDNITL; listed as Homo sapiens) [compound 594]
16,“+++” (≧50 = +++),595 (VLLSIYPRV; listed as Homo sapiens) [compound 595]

# More lines, now with the values behind:
row,Substance,Peptide exchange
1,516 (AVGPASILKEV; listed as Homo sapiens) [compound 516],“++” (≧20% = ++)
2,517 (LLMPIPEGLTL; listed as Homo sapiens) [compound 517],“+++” (≧50 = +++)
3,519 (GLLHLTLLL; listed as Homo sapiens) [compound 519],“+++” (≧50 = +++)
4,520 (LAVHPSGVAL; listed as Homo sapiens) [compound 520],“+” (≧10% = +)
5,521 (MLLTKLPTI; listed as Homo sapiens) [compound 521],“+++” (≧50 = +++)
6,522 (TLWYRSPEV; listed as Homo sapiens) [compound 522],“++” (≧20% = ++)
7,523 (YQIPRTFTL; listed as Homo sapiens) [compound 523],“++” (≧20% = ++)
8,525 (VLLEAGEGLVTI; listed as Homo sapiens) [compound 525],“+++” (≧50 = +++)
9,526 (RLAEVGQYEQV; listed as Homo sapiens) [compound 526],“++” (≧20% = ++)
10,527 (FLLEPGNLEV; listed as Homo sapiens) [compound 527],“++++” (≧75% = ++++)
11,529 (LLADELITV; listed as Homo sapiens) [compound 529],“+++” (≧50 = +++)
12,530 (VMYADIGGMDI; listed as Homo sapiens) [compound 530],“+++” (≧50 = +++)
13,538 (LLLAHIIAL; listed as Homo sapiens) [compound 538],“++” (≧20% = ++)
14,541 (SMLEPVPEL; listed as Homo sapiens) [compound 541],“+++” (≧50 = +++)
15,542 (RVWDISTVSSV; listed as Homo sapiens) [compound 542],“+++” (≧50 = +++)
16,544 (LLWDVPAPSL; listed as Homo sapiens) [compound 544],“+++” (≧50 = +++)
17,546 (VMIAGKVAVV; listed as Homo sapiens) [compound 546],“+++” (≧50 = +++)
18,547 (TLDITPHTV; listed as Homo sapiens) [compound 547],“+++” (≧50 = +++)
19,548 (ALWENPESGEL; listed as Homo sapiens) [compound 548],“++” (≧20% = ++)
20,549 (AMLENASDIKL; listed as Homo sapiens) [compound 549],“+++” (≧50 = +++)
21,551 (KLYESLLPFA; listed as Homo sapiens) [compound 551],“+++” (≧50 = +++)
22,552 (GLLDLPFRVGV; listed as Homo sapiens) [compound 552],“++++” (≧75% = ++++)
23,553 (SLLNQDLHWSL; listed as Homo sapiens) [compound 553],“++++” (≧75% = ++++)

row,Substance,Peptide exchange
1,554 (LLMPSSEDLLL; listed as Homo sapiens) [compound 554],“+++” (≧50 = +++)
2,558 (GLLENIPRV; listed as Homo sapiens) [compound 558],“+++” (≧50 = +++)
3,559 (VTVPPGPSL; listed as Homo sapiens) [compound 559],“++” (≧20% = ++)
4,560 (ALWDIETGQQTTT; listed as Homo sapiens) [compound 560],“+++” (≧50 = +++)
5,562 (YLEELPEKLKL; listed as Homo sapiens) [compound 562],“+++” (≧50 = +++)
6,568 (TLYDIAHTPGV; listed as Homo sapiens) [compound 568],“++++” (≧75% = ++++)
7,569 (KLVDRTWTL; listed as Homo sapiens) [compound 569],“+++” (≧50 = +++)
8,574 (YLLQEPPRTV; listed as Homo sapiens) [compound 574],“++” (≧20% = ++)
9,575 (YLISQVEGHQV; listed as Homo sapiens) [compound 575],“+++” (≧50 = +++)
10,577 (VMFEDGVLMRL; listed as Homo sapiens) [compound 577],“+++” (≧50 = +++)
11,583 (ILANDGVLLAA; listed as Homo sapiens) [compound 583],“+++” (≧50 = +++)
12,585 (ALWDLAADKQTL; listed as Homo sapiens) [compound 585],“++++” (≧75% = ++++)
13,586 (KLKPGDLVGV; listed as Homo sapiens) [compound 586],“+++” (≧50 = +++)
14,588 (SLLPLSHLV; listed as Homo sapiens) [compound 588],“+++” (≧50 = +++)
15,589 (KLYPQLPAEI; listed as Homo sapiens) [compound 589],“+++” (≧50 = +++)
16,590 (SLIEKLWQT; listed as Homo sapiens) [compound 590],“++” (≧20% = ++)
17,592 (RLLSAAENFL; listed as Homo sapiens) [compound 592],“+++” (≧50 = +++)
18,596 (ALLDQTKTLAESAL; listed as Homo sapiens) [compound 596],“+++” (≧50 = +++)
19,597 (KLLEGQVIQL; listed as Homo sapiens) [compound 597],“+++” (≧50 = +++)
20,598 (FLFPHSVLV; listed as Homo sapiens) [compound 598],“+++” (≧50 = +++)
21,599 (YLLNDASLISV; listed as Homo sapiens) [compound 599],“+++” (≧50 = +++)
22,600 (ALAAPDIVPAL; listed as Homo sapiens) [compound 600],“+++” (≧50 = +++)
